Data on 84 variants can be found in the RNAGym collection of RNA variant scans (doi:10.1073/pnas.2313332121).

The chains are these.
B1: TPR t1 (parent)
chain: GACCAAUCUGCCCUCAGAGCUCGAGAACAUCUUCGGAUGCAGAGGAGGCAGGCUUCGGUGGCGCGAUAGCGCCAACGUCCUCAACCUCCAAUGCAUCCCACCACAUGAUGAUGCCUGAAGAGCCUUGGUUUUUUG

The data set covers variants of B1. As to the kind of experiment: polymerase ribozyme fitness, log enrichment relative to wild type (log ratio); higher = more active; in vitro selection for triplet polymerase activity. The gist of the method:
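Mutant libraries of each subunit of a heterodimeric triplet polymerase ribozyme were built by PCR and transcribed. Each library went through one round of in vitro selection in triplicate: annealing with biotinylated primer, partner subunit and triplets, frozen incubation at −7 °C, gel excision of extended constructs, streptavidin-bead capture and RT-PCR. Input and output libraries were Illumina-sequenced; only genotypes with ≥10 input reads and ≥1 read per output were kept. Fitness is log2(genotype enrichment/wild-type enrichment), using inverse-variance-weighted replicate averages.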
Turning to C82U A95G, the “polymerase ribozyme fitness (log ratio)” value was determined as 0.358.

With G110A G127C, the “polymerase ribozyme fitness (log ratio)” value was -1.94.

In the case of C12U G128A, the “polymerase ribozyme fitness (log ratio)” value was -1.59.

Regarding U112C U129C, the “polymerase ribozyme fitness (log ratio)” value amounted to 0.894.

Turning to C56A C79A, the “polymerase ribozyme fitness (log ratio)” value is -1.77.

As for G39A U54A A83U U92G, the “polymerase ribozyme fitness (log ratio)” value was -4.73.

Take C13A G35A C124G: the “polymerase ribozyme fitness (log ratio)” value is -3.52.

Consider C11G A50U A66G U87C C115U A118C, for which the “polymerase ribozyme fitness (log ratio)” value was -6.65.

Take A24G G69U: the “polymerase ribozyme fitness (log ratio)” value is -0.509.

Take C56U C62A: the “polymerase ribozyme fitness (log ratio)” value is -5.47.

Take C12G C15A A108G A111C: the “polymerase ribozyme fitness (log ratio)” value is -4.53.

On to A27C C56G, for which the “polymerase ribozyme fitness (log ratio)” value was -3.34.

Take C40U U59C C85G: the “polymerase ribozyme fitness (log ratio)” value was -2.73.

In the case of C56U C85G A91U C101U U106C, the “polymerase ribozyme fitness (log ratio)” value was -4.05.

In the case of C4G C8G A26G G120U, the “polymerase ribozyme fitness (log ratio)” value is -0.664.

For the variant G45C A66U C79G C82U, the “polymerase ribozyme fitness (log ratio)” value was -3.83.

Turning to C85A G117A, the “polymerase ribozyme fitness (log ratio)” value is -2.97.

As to U55A G71U C102U A121G U132A, the “polymerase ribozyme fitness (log ratio)” value came out at 0.31.

G10U G52A C79G A119U: the “polymerase ribozyme fitness (log ratio)” value was -0.109.

Consider C85G C99U, for which the “polymerase ribozyme fitness (log ratio)” value was -4.35.

On to C62A G93U C101G, for which the “polymerase ribozyme fitness (log ratio)” value was -5.19.

As to C13U A18U, the “polymerase ribozyme fitness (log ratio)” value was -0.945.

On to A43G G107A, for which the “polymerase ribozyme fitness (log ratio)” value is -6.28.

For A46G U54G, the “polymerase ribozyme fitness (log ratio)” value came out at 0.0807.

G44A C49U U106C: the “polymerase ribozyme fitness (log ratio)” value is -2.86.

With C62U U78A C89U G117A, the “polymerase ribozyme fitness (log ratio)” value is -2.6.

On to A16G G60U A90U, for which the “polymerase ribozyme fitness (log ratio)” value was -2.82.

Take U21C A41G G44A C56U C98U U112A: the “polymerase ribozyme fitness (log ratio)” value is -1.55.

U9A C56G: the “polymerase ribozyme fitness (log ratio)” value is -0.125.

As to A29U G61A C73U, the “polymerase ribozyme fitness (log ratio)” value is -1.74.

For the variant C11G A27C G48A C94G, the “polymerase ribozyme fitness (log ratio)” value was -4.21.

For A16G C40G, the “polymerase ribozyme fitness (log ratio)” value is -0.424.

Consider C72U U96G, for which the “polymerase ribozyme fitness (log ratio)” value was -1.42.

Regarding C3A G48A A84G C114U, the “polymerase ribozyme fitness (log ratio)” value was -3.87.

As to A5G C12U G113U U125C, the “polymerase ribozyme fitness (log ratio)” value was -2.74.

Regarding C79U C80U C104U, the “polymerase ribozyme fitness (log ratio)” value is -1.54.

Regarding C72A G110A C115A, the “polymerase ribozyme fitness (log ratio)” value was -2.51.

On to C40G G110A, for which the “polymerase ribozyme fitness (log ratio)” value is -1.53.

Regarding C12A A46U G47C A68G U78C C124G, the “polymerase ribozyme fitness (log ratio)” value is -4.93.

With C40U G61U A119U G122U, the “polymerase ribozyme fitness (log ratio)” value is -0.621.

Regarding G69A C85A, the “polymerase ribozyme fitness (log ratio)” value is -4.3.

Turning to C22G C72G C124A, the “polymerase ribozyme fitness (log ratio)” value is -2.22.

As to C11U G51U, the “polymerase ribozyme fitness (log ratio)” value is -3.04.

In the case of U78A U96C, the “polymerase ribozyme fitness (log ratio)” value was -0.338.

In the case of U14A A37U G52A U59C, the “polymerase ribozyme fitness (log ratio)” value was -3.31.

Turning to C3A U78C, the “polymerase ribozyme fitness (log ratio)” value was -0.717.

As to C11A G71A, the “polymerase ribozyme fitness (log ratio)” value was -1.67.

Consider A6C U9A C15G G45A C104A C124G, for which the “polymerase ribozyme fitness (log ratio)” value was -3.65.

Regarding C20A A84C C88A U92G C114A, the “polymerase ribozyme fitness (log ratio)” value is -4.5.

In the case of C13G G60A G77C U130C, the “polymerase ribozyme fitness (log ratio)” value was -3.08.

Consider G117A G120A, for which the “polymerase ribozyme fitness (log ratio)” value is -2.42.

For the variant U54A A68G G71U C80G C102G G113U U125A, the “polymerase ribozyme fitness (log ratio)” value is -6.12.

As to C11A C12G C20U U55A C56U G93C, the “polymerase ribozyme fitness (log ratio)” value is -4.53.

As to C3A G36C C70G G120A A121U, the “polymerase ribozyme fitness (log ratio)” value was -3.08.

In the case of A74G G120A, the “polymerase ribozyme fitness (log ratio)” value turned out to be 1.08.

For C85A G113A A121C, the “polymerase ribozyme fitness (log ratio)” value was -2.05.

In the case of A75U A111C, the “polymerase ribozyme fitness (log ratio)” value stood at 0.255.

As for U14A A46C C70A U112A A119G G122C, the “polymerase ribozyme fitness (log ratio)” value is -2.7.

As to C8U G48U A50U G69U C86U U96A, the “polymerase ribozyme fitness (log ratio)” value was -1.23.

Regarding G69A A84U C94U, the “polymerase ribozyme fitness (log ratio)” value was -3.36.

Consider A29G U87A, for which the “polymerase ribozyme fitness (log ratio)” value was -1.67.

As to G48U C49U G60C A84U U129A U134G, the “polymerase ribozyme fitness (log ratio)” value is -1.92.

In the case of A46U C86A A118G, the “polymerase ribozyme fitness (log ratio)” value is -0.968.

Take C20A G36U G77U U116C: the “polymerase ribozyme fitness (log ratio)” value is -5.13.

On to C12A G61U U78A U96A, for which the “polymerase ribozyme fitness (log ratio)” value is -1.84.

C56U G69C C89U C123U: the “polymerase ribozyme fitness (log ratio)” value is -7.26.

As to U9A G110U C124G, the “polymerase ribozyme fitness (log ratio)” value is -0.636.

On to G60A G135U, for which the “polymerase ribozyme fitness (log ratio)” value is -0.711.

On to C13G U59C, for which the “polymerase ribozyme fitness (log ratio)” value amounted to 0.688.

In the case of C34A U55C, the “polymerase ribozyme fitness (log ratio)” value was -3.18.

Turning to G60A U116C A118C, the “polymerase ribozyme fitness (log ratio)” value was -3.05.

Turning to G51A A121U, the “polymerase ribozyme fitness (log ratio)” value was -0.44.

In the case of G71A U116A, the “polymerase ribozyme fitness (log ratio)” value was -3.85.

As for G10A A18U G77A U87A C115A, the “polymerase ribozyme fitness (log ratio)” value was -1.44.

For C12A G17U G42U C53G U59C C101A, the “polymerase ribozyme fitness (log ratio)” value was -5.66.

For U7G C13A C49G U96C, the “polymerase ribozyme fitness (log ratio)” value is -0.772.

As for C20A A84G C86A G128U U130C, the “polymerase ribozyme fitness (log ratio)” value was -3.64.

Take U54A C85U C97U: the “polymerase ribozyme fitness (log ratio)” value was -1.5.

Consider C62G C79U, for which the “polymerase ribozyme fitness (log ratio)” value was -1.14.

On to C56G C72U U130A, for which the “polymerase ribozyme fitness (log ratio)” value is -1.31.

Turning to G120U C123G, the “polymerase ribozyme fitness (log ratio)” value stood at 1.47.

In the case of G10C U38C C40U C64U C101A, the “polymerase ribozyme fitness (log ratio)” value was -1.8.

Turning to G42U A43U G63C U78C, the “polymerase ribozyme fitness (log ratio)” value was -3.

Turning to C12U G17C A29G C82A A90U A95C U106C G120A A121U, the “polymerase ribozyme fitness (log ratio)” value is -6.75.
